167 variants from the Human Domainome abundance scans (Beltran et al. 2025) can be followed below.

± gives the uncertainty stated by the source.

The labels stand for the following.
B1: Ankyrin-2, residues 3571 to 3650; numbered along this chain, Q01484 (parent)
chain: ERLAYIADHLGFSWTELARELDFTEEQIHQIRIENPNSLQDQSHALLKYWLERDGKHATDTNLVECLTKINRMDIVHLME

In this series the parent is B1. Nature of the series: abundance fitness (aPCA) (normalised: wild type 0, dead -1); higher = more abundant; growth selection in yeast, the domain comes from the species named. The note with it: Homo sapiens.
I70G: the abundance fitness was -0.663 ± 0.068. Take I70N: the abundance fitness was -0.693 ± 0.26. I70L: the abundance fitness is -0.065 ± 0.044.

With I70T, the abundance fitness was -0.226 ± 0.12. As for I6W, the abundance fitness is -0.485 ± 0.22.

For the variant I6V, the abundance fitness was -0.126 ± 0.46. Under E16G stands -0.065 ± 0.057; under E16Q, 0.202 ± 0.098. As to E16P, the abundance fitness is -0.233 ± 0.075. With E16D, the abundance fitness is 0.053 ± 0.12. As to E16H, the abundance fitness amounted to 0.028 ± 0.17. Turning to E16A, the abundance fitness is -0.037 ± 0.066. As for L67C, the abundance fitness is -0.153 ± 0.13. Turning to L67T, the abundance fitness was -1.16 ± 0.34. For L67Y, the abundance fitness was -0.754 ± 0.39.

Take D74F: the abundance fitness is -0.971 ± 0.28.

For the variant D74W, the abundance fitness is -0.573 ± 0.17. For D74P, the abundance fitness is -0.471 ± 0.058. Under D74R stands -0.707 ± 0.11. As for D74G, the abundance fitness is -0.678 ± 0.094. Under D74E stands -0.151 ± 0.11; under D74T, -0.793 ± 0.12; under D74M, -0.839 ± 0.26.

For D74S, the abundance fitness is -0.593 ± 0.067. Take R53L: the abundance fitness was -0.236 ± 0.068.

For R53M, the abundance fitness is -0.109 ± 0.098. With L17R, the abundance fitness is -1.23 ± 0.12.

In the case of L17T, the abundance fitness was -0.235 ± 0.086. L17F: the abundance fitness was found to be 0.08 ± 0.12. For the variant L17N, the abundance fitness was -1.15 ± 0.42. Under L17M stands -0.119 ± 0.11; under R19Q, 0.046 ± 0.075; under R19M, 0.083 ± 0.19. With R19A, the abundance fitness is -0.076 ± 0.091. For the variant R19E, the abundance fitness is 0.101 ± 0.17.

Take I31D: the abundance fitness was -1 ± 0.29. On to I31G, for which the abundance fitness was -0.936 ± 0.1.

As for I31C, the abundance fitness is 0.027 ± 0.18.

As for I31S, the abundance fitness is -0.772 ± 0.087.

As to I31W, the abundance fitness was -0.336 ± 0.085. Regarding I31M, the abundance fitness was -0.177 ± 0.12. Regarding I31Q, the abundance fitness is -0.743 ± 0.12. As for H44Q, the abundance fitness is -0.062 ± 0.15. In the case of H44Y, the abundance fitness is -0.21 ± 0.27. Under H44L stands -0.008 ± 0.099; under H44W, -0.152 ± 0.11; under I28K, -0.633 ± 0.32. Regarding I28F, the abundance fitness is -0.792 ± 0.18. I28D: the abundance fitness was -0.895 ± 0.17. With I28P, the abundance fitness is -0.833 ± 0.12. Regarding I28V, the abundance fitness was -0.056 ± 0.066. Then I28M, with -0.064 ± 0.13; and I28H, with -0.668 ± 0.14; and V76S, with -0.219 ± 0.1. With V76P, the abundance fitness is -0.226 ± 0.095. Then V76F, with -0.102 ± 0.11. On to V76G, for which the abundance fitness was -0.216 ± 0.046. Take A58Q: the abundance fitness is 0.039 ± 0.093. As to A58C, the abundance fitness was -0.026 ± 0.13. Then A58M, with -0.231 ± 0.13; and A58E, with -0.071 ± 0.088. Under A58Y stands 0.026 ± 0.19; under L51N, -0.123 ± 0.13.

Consider L51V, for which the abundance fitness was -0.087 ± 0.1. On to L51T, for which the abundance fitness is 0.017 ± 0.17. As for L51S, the abundance fitness was -0.107 ± 0.075.

For L51F, the abundance fitness was 0.037 ± 0.17. For the variant W50C, the abundance fitness is -0.053 ± 0.096. Regarding W50G, the abundance fitness is -0.28 ± 0.058. Consider W50T, for which the abundance fitness is -0.05 ± 0.15. Then W50F, with -0.086 ± 0.12; and L39Q, with -0.102 ± 0.11. On to L39R, for which the abundance fitness was -0.109 ± 0.053. Then L39V, with -0.043 ± 0.069. Consider L39G, for which the abundance fitness is -0.108 ± 0.049. Turning to L39A, the abundance fitness was 0.031 ± 0.072. On to L39H, for which the abundance fitness is -0.155 ± 0.14. Regarding L39M, the abundance fitness was -0.042 ± 0.12. In the case of T68V, the abundance fitness is -0.001 ± 0.08. As for T68I, the abundance fitness is -0.122 ± 0.29. As for T68K, the abundance fitness was -0.044 ± 0.088.

As for T68P, the abundance fitness was -0.098 ± 0.046. For the variant K56A, the abundance fitness was -0.02 ± 0.059.

Take K56W: the abundance fitness was -0.126 ± 0.063. For K56D, the abundance fitness was found to be 0.052 ± 0.14. Then K56Q, with -0.067 ± 0.12; and K56T, with -0.01 ± 0.073.

N71H: the abundance fitness was -0.163 ± 0.13.

N71R: the abundance fitness was -0.031 ± 0.073. For N71W, the abundance fitness was -0.355 ± 0.093. As for H57E, the abundance fitness stood at 0.101 ± 0.13. Take H57L: the abundance fitness was -0.093 ± 0.064. In the case of H57P, the abundance fitness was determined as 0.009 ± 0.067. Under H57F stands -0.107 ± 0.084; under A18T, -0.903 ± 0.35; under Q27H, 0.101 ± 0.14. As for Q27R, the abundance fitness was -0.09 ± 0.071. Q27K: the abundance fitness is 0.051 ± 0.14. In the case of Q27V, the abundance fitness was -0.042 ± 0.051. Regarding Y49W, the abundance fitness was -0.117 ± 0.12. For Y49M, the abundance fitness came out at 0.059 ± 0.1. Regarding Y49N, the abundance fitness is -0.056 ± 0.12. On to Y49G, for which the abundance fitness is 0.042 ± 0.055.

For Y5C, the abundance fitness amounted to 0.137 ± 0.17. Y5W: the abundance fitness is -0.143 ± 0.26. Under F12Q stands -0.132 ± 0.25. Regarding F12T, the abundance fitness was -0.031 ± 0.08. For the variant F12S, the abundance fitness was 0.063 ± 0.096. As for F12H, the abundance fitness is -0.128 ± 0.2.

In the case of F12N, the abundance fitness was -0.158 ± 0.2. With F12P, the abundance fitness is -0.168 ± 0.13.

Turning to D54I, the abundance fitness was -0.354 ± 0.13. Regarding D54Q, the abundance fitness is -0.111 ± 0.11. Turning to D54N, the abundance fitness is -0.033 ± 0.13.

Turning to D54M, the abundance fitness was -0.013 ± 0.1. D54F: the abundance fitness was determined as 0.01 ± 0.12.

For the variant D54E, the abundance fitness is -0.02 ± 0.13. Under D54V stands -0.024 ± 0.071; under D41P, -0.243 ± 0.071. As to D41L, the abundance fitness is -0.038 ± 0.05. As for D41Q, the abundance fitness was -0.024 ± 0.11. For D41G, the abundance fitness was determined as 0.006 ± 0.05. Under D41N stands -0.02 ± 0.09; under D41I, 0.004 ± 0.066; under D41E, -0.077 ± 0.11. Under E52T stands 0.006 ± 0.087.

E52M: the abundance fitness is -0.083 ± 0.12. Consider L47S, for which the abundance fitness was -0.462 ± 0.058. For the variant L47E, the abundance fitness is -0.673 ± 0.057. As to L47Q, the abundance fitness was -0.626 ± 0.1. For the variant L47R, the abundance fitness is -0.541 ± 0.062. Under T61Q stands -0.093 ± 0.14; under T61D, -0.017 ± 0.12; under T61M, -0.427 ± 0.26.

Consider N35H, for which the abundance fitness is -0.118 ± 0.21. Under N35W stands -0.049 ± 0.065. As for N35C, the abundance fitness is -0.053 ± 0.084. For N35Y, the abundance fitness was -0.07 ± 0.17. Then N35Q, with 0.066 ± 0.08; and N35M, with -0.03 ± 0.086. As to D8K, the abundance fitness is -0.006 ± 0.17. On to D8Q, for which the abundance fitness amounted to 0.234 ± 0.26.

Take D60R: the abundance fitness is -0.082 ± 0.049. With D60H, the abundance fitness is -0.286 ± 0.16. F23T: the abundance fitness is -0.211 ± 0.12. Then F23M, with -0.021 ± 0.15; and F23E, with -1.17 ± 0.31; and F23V, with -0.174 ± 0.078. With F23A, the abundance fitness is -0.177 ± 0.092. F23G: the abundance fitness is -1.17 ± 0.19. Consider F23C, for which the abundance fitness was -0.184 ± 0.11. In the case of N62K, the abundance fitness is -0.374 ± 0.46. Turning to N62I, the abundance fitness is -0.169 ± 0.1.

N62T: the abundance fitness was -0.029 ± 0.083. For the variant N62L, the abundance fitness worked out at 0.004 ± 0.047.

As for N62S, the abundance fitness stood at 0.007 ± 0.048. As for N62R, the abundance fitness was -0.013 ± 0.05. For N62G, the abundance fitness was 0.072 ± 0.046. Then N62V, with 0.035 ± 0.056; and N62Y, with -0.135 ± 0.12.

Consider D22F, for which the abundance fitness is -0.039 ± 0.097. On to D22I, for which the abundance fitness is -0.14 ± 0.35. D22V: the abundance fitness is -0.206 ± 0.066. For D22G, the abundance fitness was -0.075 ± 0.06. D22H: the abundance fitness was -0.017 ± 0.25. Take D22Q: the abundance fitness came to 0.017 ± 0.095. Under D22C stands -0.167 ± 0.2.
